These results are taken from patent US20200323888A1, “INHIBITORS” (VESTLANDETS INNOVASJONSSELSKAP AS, priority 2017, published 2020).

For test [1], the target named is T1, Naa80 (Homo sapiens, UniProt Q93015).
T1 construct: The PCR product containing the CDS was inserted into the TOPO TA vector; made in house; host or cells: E. coli BL21 Star (DE3)
T1 sequence (Q93015 1-308 isoform Q93015-2): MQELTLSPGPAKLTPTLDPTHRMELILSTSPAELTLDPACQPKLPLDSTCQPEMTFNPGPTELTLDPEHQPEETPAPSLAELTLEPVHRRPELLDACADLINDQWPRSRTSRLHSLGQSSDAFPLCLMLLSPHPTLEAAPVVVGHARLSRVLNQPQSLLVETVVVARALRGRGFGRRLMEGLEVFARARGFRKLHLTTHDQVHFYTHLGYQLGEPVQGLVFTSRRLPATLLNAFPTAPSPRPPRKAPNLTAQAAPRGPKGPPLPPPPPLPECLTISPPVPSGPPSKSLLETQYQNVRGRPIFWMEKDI
In words: Naa80 substrate screening assay (peptide acetylation by purified Naa80). The test is classed as biochemical. The conditions noted are these: Naa80 mediated acetylation of 24-mer peptide substrates. From the text:
In order to investigate the in vitro activity of Naa80 further, an enzyme activity screening assay on purified Naa80 was undertaken using a broad substrate library (including amino acids, nucleosides, coenzymes, amines, saccharides, vitamins, antioxidants and peptides) modified from Kuhn et al. (Kuhn et al. (2013) “Broad-substrate screen as a tool to identify substrates for bacterial Gcn5-related N-acetyltransferases with unknown substrate specificity”. Protein Science 22(2):222-230). Among all of the potential substrates tested, only the peptides with N-terminal sequence of MDEL24 (SEQ ID NO: 45), DDDI24 (SEQ ID NO: 41) and EEEI24 (SEQ ID NO: 40) were acetylated, as shown in the following table:
The 24-mer substrate peptides differed in their 7 N-terminal amino acids while the 17 C-terminal residues (RWGRPVGRRRRPVRVYP, SEQ ID NO: 39) were kept constant: EEEI24 (EEEIAAL, SEQ ID NO: 40), DDDI24 (DDDIAAL, SEQ ID NO: 41), MDDD24 (MDDDIAA, SEQ ID NO: 42), SESS24 (SESSSKS, SEQ ID NO: 43), AVFA24 (AVFADLD, SEQ ID NO: 44), MDEL24 (MDELFPL, SEQ ID NO: 45), MELL24 (MELLSPP, SEQ ID NO: 46), MLGT24 (MLGTGPA, SEQ ID NO: 47), MTNK24 (MTNKSSL, SEQ ID NO: 48), MLGP24 (MLGPEGG, SEQ ID NO: 49), MAPL24 (MAPLDLD, SEQ ID NO: 50), MKKS24 (MKKSYSG, SEQ ID NO: 51).
Both MDEL (p65, SEQ ID NO: 8) and MDDD24 (unprocessed β-actin, SEQ ID NO: 42) represent cellular NatB substrates.

The target in test [2] is T1, Naa80. The description is as above. It counts as biochemical. The conditions noted are these: linear range of enzyme concentration.

For “MDEL24: 24-mer substrate peptide: N-terminal MDELFPL (SEQ ID NO: 45) plus constant RWGRPVGRRRRPVRVYP (MDELFPLRWGRPVGRRRRPVRVYP)”, the Product formation in the test with Naa80 [1] is reported as 119 (±5.61) μM. Besides, the “higher product formation compared to second best substrate MDDD24” value with Naa80 [2] was 5 fold.
